Reference: a protein production outcome set (Wang et al. 2014)

Test: label from the status in PepcDB records

Row | Sequence | protein production
1 | MTMPIFNISDDVDLVPAMPAEGRDGGSYRRQIWQDDVENGTIVAVWMAEPGIYNYAGRDLEETFVVVEGEALYSQADADPVKIGPGSIVSIAKGVPSRLEILSSFRKLATVIPKP | not failed
2 | MTMRRVKGGLVQAVRVARGGAVAWLSLCMLMVGGQALAQQAITAPASNAVERVEQASTGESTVVTVTLKDTPAQKPVEFSTQQPARIAIDFFGTAFAQGRANYQYGGKLLRAASVVQIGDRTRVVLDLARQSQYKSEIRGNQYVLTLGAAPTASATPVPTFAAPAPTAGVERPSVRNIDFRRGEELAGRVVVDLSTSNSAINIAQQGQNLVVDFAGATLPQSLRRRFDVSDFGTPVQAMRATDNGTGARLVIEPRGNWQYSSYQTDTQFVVEVRPTKEDPNKLISGPGYRGERMSLNFQNIDIRSLLQVFADFTNLNIVTSDSVTGTLSLRLKDVPWDQALQIVLDSKGLASRRNGNVLWVAPRNELATKEKAELESQQQVTELEPLRSQVFRLNYQRADDVRNMLLGTGGTAGGGAAASRILSKRGSLTSDARTNQLFVSDIPSKLEEVQAFLLKIDIPVRQVMIEARIVEADDTFSRNLGAKLGFAAKTNGAGYGNTYSNVVSPVTKDATWDNSAAVSLPANGINGVNAASVAVSLFNAGAGRFLALELSALEADGRGKIISSPRVVTADNIKALIEQGTEVPYQQATSSGATSVSFKKANLKLEVTPKITPDGNVFLDVDVNKDSLGTQTTNGFAINTKHVQTQVLVENGGTVVIGGIYTQNERTDVNKVPLLGDIPVLGNLFKSTAKTNDRTELLVFLTPRVLSDQLSLK | failed
3 | MTMTLSAKDLENISKLAYLNEDSEHSAKLTQEVSAIMDFVDQLKTIDTSQIAPLFHPLALNQRLRPDEVTEAECLAELEAMAPLFEDNLYLVPKVISSDK | failed
4 | MTMTRTPLTQAAATLKARFREIGYTTSGINNVLGPDFVAAMHAGQPAAVRFHLDSLPESDLNLALRAFVLRDQVRVEKLAALLGEALKTLVDASLVEISGEYAQFLIDIRPHLIAGRQQWVFSDADASMTQHVPGPDHVLGVGAASLSLLQATPTSPTGSVLDLGTGSGIQVLGQAGAAQEIIATDVHPRALDFAEATLVDSGIPTQLVEGSWFEPVRGRTFDRIIANPPFVVGPPEIGHVYRDSGMDLDGATALVVKEACAHLNPGGTAHLLGAWVHSADQSWQQRVAEWLPDNGYVAWVIERDAVSPAQYVGTWLSDESLDLRSPEAAARTTAWLNHFEKAKVQGVGFGFIAIQRLEEDEADEKSDILAESMTQYFEDPLGPEIEEYFTRTAWLREQTRDSILSSRFKVRPGVAREQISLADAEEGMGFSPVTLRLTRTDGPRWSHDVDEHVASIVAGLNPHGLPFEEILEMYAMAQGIEGESLHNGAIAALVDLIRHGLVLPADLLDS | failed
5 | MTNAGTTDLSWLPSDADEQLALGFKIVTNAYKTRVTSQEAEIRSLKGQLTEKQEQLSSIQKKYSNLEVQLIESTQRGNQLADENKQLITTIKKLNRDIDRLENLKKAVLNSIQEEHDVEDAHKYYSADDLLQTTAPRTMLEMNGNEDSCQSIINKIVNSDTHNIINGSFNSPYIGNVPLGEKNTDGRAFFRNARSRLSYEQFNQFLSNIKKLNNHQQKREETLKKAQAIFGEANLDLYEEFKVLISKHS | failed
6 | MTNAIQDRLPRTTNSVEDTMALGARIAQGLSPGAVVALYGDLGTGKTHFVKGVAQGLGLPPAEVRSPTFTILAVHDDGDRPLYHFDAYRVQTPDEFVELGFETYVHGDGLTCIEWAGRVADLLPADTVPLQFHHVAPSTRRITLGAPLEHHHHHH | not failed
7 | MTNDDSLKTYRAKRDFSVTPEPSGVASGKTAIKSTAKVLSFVVQKHWATRLHYDFRLELEGTMKSWAVPKGPSFDPNDKRMAVHVEDHPISYNSFEGEIPSGQYGAGKVIIWDKGTWIPLEDPHKGYRDGKLKFELRGLKLKGHWALVRMRKEENKKQEPWLLIKEKDEYVRSSREYSVVDEMPDSVAELDVPDVPQPSKASATSGSSSPKSSSIFRKGTKTTLPDNARKAELPRTLTPELATLVDEPPVDPEEWIYEIKFDGYRMLSRIEGGEVRLITRNGNDWSHKLPHLIKALGKLKLKSSWLDGEIAVLDENGIPDFQSLQNAFDSAHTESIIYYLFDVPFYEGYDLRDASLVERRALLQKLFEAHAPDEIRFSDVFDVSPAEILDSACRLGLEGVIGKRKTSVYVSRRSQDWIKLKCKNRQEFVIGGYTDPKGTRKGIGSLLLGYYDEDRKLRYAGNVGAGFSDKTLEDLRARLDRIALTDSPFVKANGLDKNAHWVEPRLIAEVSFGEWTRGGHIRHSVFHGLRSDKKADVIVREKPVHPAAKSAPASAIPKSLKVTNPDRVIDPSTGFTKVDLIRYYALVAPLMLPHLARRPVSLVRAPEGVSGELFFQKHWEKENMPGIEQLDPSLDPDHPPLLEVSTAEGLLSAVQMNVIEFHTWNATKNVIGKPDRIAFDLDPGSGVEWALIQESAQLVNVFLRELGLKSFLKTSGGKGLHIVVPIRRLRDWDTVKGFSQAIVQHLAKTIPTRFTAKSGPRNRVGKIFIDYLRNGFGATTVSAWSVRARPGLGVSVPLAWEELSSLKSSTRWSASNIHERLDKGNDPWADYAETNQSIVPAMKKLGFTPSSKA | failed
8 | MTNIQKRFYKGRVALNVLANNIENAKDIFEAAEGYVVVGVLSKDYPTVEEAVTAMKAYGKEIDDAVSIGLGAGDNRQAAVVAEIAKHYSGSHINQVFPSVGATRANLGGKDSWINSLVSPTGKVGYVNISTGPISAAGEEKAIVPIKTAIALVRDMGGNSLKYFPMKGLAHEEEYRAVAKACAEEGFALEPTGGIDKENFETILRIALEANVEQVIPHVYSSIIDKETGNTKTEDVRELLAVVKKLVDQYA | not failed
9 | MTNKYIKLCFIDLVDLKKMSKQNLKIVLFHGFMAREHMQRHWLCYLKKLGYSDIHLYGHLSSAEMLAKQIHSTQNSAQKLVLFGYSQGGFQAVKVAQAFEQLQLPVDLLITIAAGGKGRLLPKQWHYNPRHIPQNVVKSLNFFSLSDSLGTDRCYRDNLIQASHHDQCIENIIFDQSAQVGHIELSRCYSKQRIHGLVKQHLISRIEYELSILE | failed
10 | MTNLLVIGATGNIGQPLIRDLQDDPDVHLFAGVHNSEHAKQALNGLKVQVRRFDFLDPATFEQALADIDKVFFVRPPQLAKPKEDMYPFLDALVARHVKQVVFVSLLGVAHNPMTPHHQIEKRIVELGLPYTFIRPSFFMQNLNTTHQADIVGHRDLFVPAGHARTSFIDTRDIGATAAVILRDPAYIGQKLDITGAQALTYADAAQIMTMELGVPITYSKPSLWRFRKVMLQRGLPKNYVNVMVMLYLITQLGNAKTVTTTLPNVLGRPAISFEQYVHDYRAEFLPKPLSLEHHHHHH | failed
11 | MTNNTDIKNQTNPMSGDLLRQIIRLGFPVAIQSALVAILALADVLMVSDFGKEATAAVGIASKWHFVAIMIMAGLASANGTLVAQYWGRNDAVSAKTVTGIAIRFGLKVLIPVTLIITLGSELIMRLQTSDTRVIELGATYLWYAFPVLLLTHIVIVLEASMRSSGDTVTPLLMGAMTIVLNIGLNFWLIKGGFGIPAMGVAGAAFATTISRLFQVLAMIAYMRWRKHWLLEVKEGSERPSLWLSYRRLALPMTLGALLWAIGTMVYQMIFGHMGTTELAVFSMLGPFESLCYSIFFGISVACSVMIGQSLGRDAFEQAEHMAKFFIKAVFVFGISIGALLLLNRELIIAALNLDNPELYPLAAPAVMILCCAIWLRMLNMIIINGIIRAGGDNVFCLRMDFIAMWMTGLPLCAIAAFVLGWEFKYVYALMIAEEVVKLALCYRRYTQKYWIKNLTVVTTS | not failed
12 | MTNPLNSTAANRSNQPSSDGISDGQITNEEAESLINKKNCSGHKLKEVTDSDTFSDNGKDDSDTKKRFHYHQDQRRMSLTSIVAVESPSSSNAPSRKTIDLGHGSDLIYIQRFLPFQQSWTFFDYLDKHIPWTRPTIRVFGRSCLQPRDTCYVASSGLTALVYSGYRPTSYSWDDFPPLKEILDAIYKVLPGSRFNSLLLNRYKGASDYVAWHADDEKIYGPTPEIASVSFGCERDFVLKKKKDEESSQARNKPTFVWCEPAGKTGDSGPAKKRLKRSSREDQQSLTLKHGSLLVMRGYTQRDWIHSVPKRAKAEGTRINLTFRLVL | not failed
13 | MTNQDNNHQLNHRIYHFEKIYKAIKHVIVFIFMIFIAIVAIAVIAMSLYFHHLTKTSDSLSDDALIKKVRQIPGDELLDHNNKNLLYEYNHSQNSLIIGPKTSSPNVIKALTSSEDTLFYKHDGILPKAILRAMIQDIFNTDQSSGGSTITQQLVKNQVLTNEKTYSRKANELRLAIRLEHLLSKDEIIYTYLNIVPFGRDYNGANISGIASASYSLFGIPPKDLSIAQSAYLIGLLQSPYGYTPYEKDGTLKSDKDLKYSIQRQHYVLKRMLIEDQITEKEYNDALKYDIKSHLLNRKKR | failed
14 | MTNQSHDDDDDDEQLPRSLFRLVSLPQKTMTNQTHDDDDDDEQLPLSLTLGSTSYSSQIRPVKSPVPIAPPPEFPGPVTTWPTPADFLATRSMVPDPPPPSHQIPLWMSNYFQQTPNPPQLVTHFFPPSGLAPPSSNLTPPPVKRPVTGSVRIYRSRSTVSKKSDTISPPFPWATNRRGEIQSLEYLESNQITTITGEVQCRHCEKVYQVSYNLRERFAEVVKFYLTEKRKMRDRAHKDWAYPEQRRCELCGREKAVKPVIAERKSQINWLFLLLGQTLGFCTLEQLKNFCKHSKNHRTGAKDRVLYLTYMGLCKMLQPKSDLFTCVAGKR | failed
15 | MTNSGIILVASAALFWGLSGGIAGILINDDWNAVLVSFCRGAVGLIFVLMWLVLRPRNSGFTNGKLWLWSIIAGFGVSGNFAFYFFSISESSVAVAATLMYCAPIFVYLISFAIKIERPTLSKCAAILLVMAGVVLLTRVYQIDSSGITPIGVIAGLLSGMSLALFIFGFKYAARQGSPQAVLAIAFSTLTLALGTLIDIEEAGRVVNSADWPLFAILGVLGGGASFILYIIGLRRTLPALASIVATIEPVTAALFGVIILGEVLAYTQVLGMLIILATVTALGVYSSKQ | failed
16 | MTNSKQKLVLASGSPRRLELLHQIGIEPARLMPMDIDETPVKLEHPRTLCRRLSQQKAEAAQAALKSEQAWKDAYVLGSDTVVAVGRRIVGKAEYTEEASAALHLLSGRSHWVYTGICLVTPDGKIRQKVAETKVRFKRLSTREIDAYIASGQWRGKAGAYGIQGIAGAFVQKLTGSYTNVVGLPLYETMSLLSGEGFEVTSGWLEG | failed
17 | MTNSNNRQSEYPVDPLFLDRWSPRAFDGSPMPKEHLLTILDAAHWAPSASNHQPWRFVYAHKDSEDWPLFVELLMEGNQKWAKNASVLLFVISRDHTISHEGEKKPSATHSFDAGAAWFSLAMQAHLLGYHAHGMGGIFKDRIVEKLDIPDGFKVEAGVAIGTLTDKSILPDDLAEREVPSKRVPLADVAFEGRFTGKAD | not failed
18 | MTNTIKKISTAQTYLNNNEIEKIIEVSKSLDLMASFYEADVFIDVLSKFDDEAIVVAHGRPKEKSMYCENVIGKKALIENEPGVIKCLKTGERVRDIKALTQEYKLVKQNIQPITLDDKVLAVLIVEKDISSEVKNEFNASEDEENKNLHQFIKLIGNNDFLVDNLNSAILIFDKNGKLKIKNRIATEIYKNLGFGYDIQDMHYNDLDIETNTFENILMDENYDETNEVSIGNMFFKIKTIYIKDDEFKVCKIVQDISDLKRKEEELVLKTVAIREAHHRVKNNLHTVISIIKKQSRLSQNDEVKQCLDNIINRVFAILSTHYLLSKEVDNNISIREGINLLVSNIQGGYLFSKDIDIRITGEDFKISGEKATAILLVINEILQNCYDHAFSDREHGTIQILINKDNDYRNIAIIDDGIGFDSNNINKNSLGTYIIDSYITQMLKGNIERKSSENGTEVLITIPTQINI | failed
19 | MTNVLWLQGGACSGNTMSFLNAEEPTVCDLIADFGIKVLWHPSLGLELGDNVQTLLWDCILGKIPLDILVFEGTVVNAPNGTGEWNRFADRPMKDWLNDLAQAASFVVAVGDCATWGGIPAMEPNPSESQGLQFLKRKEGGFLGKDFRAKSGLPVINIPGCPSHPDWITQILVAIATGRIGDIALDELNRPQTFFNTFTQTGCTRNVHFAYKATTAEFGQRKGCLFYDLGCRGPMTHSSCNRILWNRVSSKTRAGMPCLGCTEPEFPFFDLKPGTVFKTQTIMGVPKELPPGVSNKNYAVLTMVAKDTAPKWAEEDFFTV | failed
